These results are taken from PMC11765882, “A High-Resolution Crystallographic Study of Cytochrome c6: Structural Basis for Electron Transfer in Cyanobacterial Photosynthesis” (International Journal of Molecular Sciences, 2025).

One may read the stoichiometry N as a count of units in the complex or per binding partner.

This data set deals with the molecule itself. Description: native gel or EMSA; blue native PAGE (4-13%) of the purified protein; dimer and monomer. Background: In EMSA bound probe runs differently from free probe, usually more slowly.

B1: Cytochrome c6 from Synechocystis sp. PCC 6803 (natural protein)
chain: ADLAHGKAIFAGNCAACHNGGLNAINPSKTLKMADLEANGKNSVAAIVAQITNGNGAMPGFKGRISDSDMEDVAAYVLDQAEKGW
modifications: heme covalently linked to two cysteine residues via thioether bonds (CXXCH motif); iron axially coordinated by methionine and histidine
notes: Cytochrome c6, Synechocystis sp; cloned into pET22b with an N-terminal pelB signal peptide; Crystallised only in the reduced form (3 mM beta-mercaptoethanol); The printed residue numbers and the MALDI-TOF mass (9449.297 with heme) fit the mature protein without the native signal peptide
As for B1, the “stoichiometry N” value worked out at 2.

B2: Cytochrome c6 from Synechococcus elongatus sp. PCC 7942 (natural protein, Synechococcus elongatus PCC 7942)
chain: ADLAHGGQVFSANCAACHLGGRNVVNPAKTLQKADLDQYGMASIEAITTQVTNGKGAMPAFGSKLSADDIADVASYVLDQSEKGWQG
modifications: heme covalently linked to two cysteine residues via thioether bonds (CXXCH motif); iron axially coordinated by methionine and histidine
notes: cloned into pET22b with an N-terminal pelB signal peptide; Used reduced (3 mM beta-mercaptoethanol) and oxidised (40-fold molar excess of potassium ferricyanide); The printed residue numbers (Asp2, His5, Ala16) and the MALDI-TOF mass (9714.504 with heme) fit the mature protein without the native signal peptide
Regarding B2, the “stoichiometry N” value was 2.
